In publication PMC3142331:

Target: Mce1-(227–567) protein, RNA guanylyltransferase (GTase) domain of mouse mammalian capping enzyme (mouse) (UniProt O55236)
Experiment: fluorescence polarisation

Mce1-(227–567) protein, RNA guanylyltransferase (GTase) domain of mouse mammalian capping enzyme (mouse), sequence (O55236 227-567): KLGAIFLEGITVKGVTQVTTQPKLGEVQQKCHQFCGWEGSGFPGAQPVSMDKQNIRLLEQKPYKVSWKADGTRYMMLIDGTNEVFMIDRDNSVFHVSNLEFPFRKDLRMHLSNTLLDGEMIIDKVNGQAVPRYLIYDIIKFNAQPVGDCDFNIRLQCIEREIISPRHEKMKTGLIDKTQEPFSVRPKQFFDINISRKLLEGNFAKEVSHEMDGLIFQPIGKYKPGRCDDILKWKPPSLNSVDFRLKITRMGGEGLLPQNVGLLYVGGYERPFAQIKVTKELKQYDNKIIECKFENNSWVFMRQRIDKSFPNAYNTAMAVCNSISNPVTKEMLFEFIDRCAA

Ki: 160 µM
Substance: unlabeled 11 aa phosphorylated CTD peptide (S2P3T4S5PP6S7Y1S2PP3T4S5)
